# US20260242478A1 (published 2026)
# Where no end group is shown, it is not given here.
# Columns and labels:
# [1] = target: T1, 006 PSMA Fab; experiment: clonal phage ELISA on biotinylated PSMA Fab captured on neutravidin plates, anti-M13 HRP detection;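 further: crude clonal phage supernatants tested, before phage were added, wells were pretreated with PSMA antigen in blocking buffer or with blocking buffer only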
# T1 construct: In the panning ELISA the PSMA Fab was biotinylated and captured on neutravidin coated plates; also called Anti-PSMA Fab; anti-PSMA Fab
# Protocol: (§1) Clonal phage were harvested as crude supernatants and screened via standard ELISAs. […] Prior to the addition of clonal phage. wells were incubated with blocking buffer and PSMA antigen or blocking buffer alone. Without washing or aspirating, clonal phage supernatants were then added to the wells and incubated for a short time. Wells were then washed followed by detection of bound phage using a horse radish conjugated anti-M13 antibody.
# [2] = target: T1, 006 PSMA Fab; experiment: clonal phage ELISA on captured PSMA Fab pre-incubated with PSMA antigen as competitor, anti-M13 HRP detection;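 further: crude clonal phage supernatants tested by ELISA, wells first treated with blocking buffer plus PSMA antigen, bound phage read out via HRP-linked anti-M13 antibody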
# Protocol: as §1
# [3] = target: T2, 006 PSMA Fab (biotinylated (site not stated)); experiment: clonal phage ELISA, biotinylated PSMA Fab on neutravidin plate, anti-M13 HRP detection; competitor PSMA antigen
# T2 construct: Biotinylated PSMA Fab captured on neutravidin coated plates in the clonal phage ELISA; also called Anti-PSMA Fab; anti-PSMA Fab
# [4] = target: T2, 006 PSMA Fab; experiment: clonal phage ELISA, biotinylated PSMA Fab on neutravidin plate, anti-M13 HRP detection, no PSMA antigen
# Protocol: as §1
# [5] = target: T3, PSMA Fab (006 PSMA Fab) (Fab biotinylated for capture on neutravidin plates (site not stated)); experiment: phage ELISA: clonal phage supernatant on biotinylated PSMA Fab captured on neutravidin plate, blocking buffer alone, anti-M13-HRP detection
# T3 construct: also called Anti-PSMA Fab; anti-PSMA Fab
# [6] = target: T3, PSMA Fab (006 PSMA Fab); experiment: phage ELISA: clonal phage supernatant on biotinylated PSMA Fab captured on neutravidin plate, wells pre-incubated with PSMA antigen as competitor, anti-M13-HRP detection
# Protocol: as §1
# [7] = target: T4, PSMA Fab (006 PSMA Fab); experiment: clonal phage ELISA; biotinylated PSMA Fab on neutravidin plate, blocking buffer alone; anti-M13 HRP detection;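 further: crude clonal phage supernatants added without washing to wells pretreated with blocking buffer with or without PSMA antigen, short incubation, then washed before detecting bound phage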
# T4 construct: also called Anti-PSMA Fab; anti-PSMA Fab
# Protocol: as §1
# [8] = target: T4, PSMA Fab (006 PSMA Fab); experiment: clonal phage ELISA; biotinylated PSMA Fab on neutravidin plate pre-incubated with PSMA antigen as competitor; anti-M13 HRP detection;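 further: crude clonal phage supernatants briefly incubated on wells preloaded with PSMA antigen in blocking buffer, or buffer only as control, bound phage detected with HRP-conjugated anti-M13 antibody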
# Protocol: as §1
Binder,"Phage binding ELISA signal, Anti-PSMA Fab [1]","Phage binding ELISA signal, Anti-PSMA Fab in the presence of PSMA antigen [2]",phage binding ELISA signal with PSMA antigen present [3],phage binding ELISA signal [4],other results
TDQLCKPLWMCTGF [Phage-3089],2.1,0.0815,–,–,–
"VNVKCVPSWMCSGF (cysteine pairing not given here; also: fused to phage pIII, orientation and linker not given here) [Phage-3125]",–,–,0.0739,2.07,–
FWAQCVPPWMCSGF [Phage-3086 (peptide-180 library clone)],–,–,–,–,"Phage binding ELISA signal, Anti-PSMA Fab [5]: 2.1; Phage binding ELISA signal, Anti-PSMA Fab in presence of PSMA [6]: 0.199"
TELACKPLWMCNGF [Phage-3091],2.1,0.0691,–,–,–
TYMMCVPEWMCQGF [Phage-3078 (peptide-180 library clone)],–,–,–,–,"Phage binding ELISA signal, Anti-PSMA Fab [5]: 2.11; Phage binding ELISA signal, Anti-PSMA Fab in presence of PSMA [6]: 0.101"
EWMKCVPLWMCEGI [Phage-3080 (peptide-180 library clone)],–,–,–,–,"Phage binding ELISA signal, Anti-PSMA Fab [5]: 2.11; Phage binding ELISA signal, Anti-PSMA Fab in presence of PSMA [6]: 0.0802"
DGPLCVPQWMCLWL [Phage-3082 (peptide-180 library clone)],–,–,–,–,"Phage binding ELISA signal, Anti-PSMA Fab [5]: 2.11; Phage binding ELISA signal, Anti-PSMA Fab in presence of PSMA [6]: 0.0699"
QGRVCEPSWMCTGF [Phage-3096],2.09,0.0561,–,–,–
NEPWCVPAWMCTGF [Phage-3120],–,–,0.0834,2.07,–
APVFCKPAWMCPWL [Phage-3121],–,–,0.0695,2.07,–
EHILCRPVWMCEGF [Phage-3098],2.09,0.101,–,–,–
"GHQMCVPQWMCDAF (cysteine pairing not given here; also: fused to phage pIII, orientation and linker not given here) [Phage-3129]",–,–,–,–,"Phage binding ELISA signal, Anti-PSMA Fab [7]: 2.06; Phage binding ELISA signal, Anti-PSMA Fab in presence of PSMA [8]: 0.0607"
MERMCRPAWMCTAF [Phage-3097],2.09,0.107,–,–,–
LEHMCRPSWMCTGF [Phage-3085 (peptide-180 library clone)],–,–,–,–,"Phage binding ELISA signal, Anti-PSMA Fab [5]: 2.1; Phage binding ELISA signal, Anti-PSMA Fab in presence of PSMA [6]: 0.0798"
VVPRCEPMWMCQGF [Phage-3088],2.1,0.0982,–,–,–
VEPYCKPAWMCTGF [Phage-3093],2.1,0.11,–,–,–
MGPVCKPAWMCLEF [Phage-3099],2.09,0.109,–,–,–
VDLICRPAWMCSGF [Phage-3087 (peptide-180 library clone)],–,–,–,–,"Phage binding ELISA signal, Anti-PSMA Fab [5]: 2.1; Phage binding ELISA signal, Anti-PSMA Fab in presence of PSMA [6]: 0.0726"
ILPQCVPAWMCSGF [Phage-3101],2.09,0.0784,–,–,–
"GMIQCRPAWMCAGL (cysteine pairing not given here; also: fused to phage pIII, orientation and linker not given here) [Phage-3122]",–,–,0.0928,2.07,–

Binder,"Phage binding ELISA signal, Anti-PSMA Fab [1]","Phage binding ELISA signal, Anti-PSMA Fab in the presence of PSMA antigen [2]",phage binding ELISA signal with PSMA antigen present [3],phage binding ELISA signal [4],other results
VSIMCTPLWMCEGF [Phage-3090],2.1,0.0782,–,–,–
HLMACKPAWMCLGL [Phage-3079 (peptide-180 library clone)],–,–,–,–,"Phage binding ELISA signal, Anti-PSMA Fab [5]: 2.11; Phage binding ELISA signal, Anti-PSMA Fab in presence of PSMA [6]: 0.135"
LDAMCRPLWMCSGF [Phage-3084 (peptide-180 library clone)],–,–,–,–,"Phage binding ELISA signal, Anti-PSMA Fab [5]: 2.11; Phage binding ELISA signal, Anti-PSMA Fab in presence of PSMA [6]: 0.0799"
SGALCVPLWMCTGF [Phage-3117],–,–,0.0979,2.07,–
"LELACKPEWMCVGF (cysteine pairing not given here; also: fused to phage pIII, orientation and linker not given here) [Phage-3128]",–,–,0.0801,2.06,–
YDFRCIPSWMCMGI [Phage-3095],2.1,0.0693,–,–,–
EFPLCVPAWMCSGF [Phage-3115],–,–,0.0859,2.08,–
GAMVCKPAWMCQGF [Phage-3094],2.1,0.0731,–,–,–
DYHYCEPAWMCFGF [Phage-3119],–,–,0.0726,2.07,–
"LDKRCVPVWMCEGF (cysteine pairing not given here; also: fused to phage pIII, orientation and linker not given here) [Phage-3127]",–,–,0.0828,2.06,–
LESMCIPPWMCSGL [Phage-3118],–,–,0.109,2.07,–
"GYPLCIPEWMCAGF (cysteine pairing not given here; also: fused to phage pIII, orientation and linker not given here) [Phage-3123]",–,–,0.0968,2.07,–
FHIMCQPEWMCLGF [Phage-3116],–,–,0.129,2.08,–
PMPVCVPMWMCYGF [Phage-3100],2.09,0.0842,–,–,–
GQNLCIPSWMCEGF [Phage-3083 (peptide-180 library clone)],–,–,–,–,"Phage binding ELISA signal, Anti-PSMA Fab [5]: 2.11; Phage binding ELISA signal, Anti-PSMA Fab in presence of PSMA [6]: 0.08"
TGAICVPEWMCMGF [Phage-3092],2.1,0.0934,–,–,–
"SMHWCEPMWMCAGF (cysteine pairing not given here; also: fused to phage pIII, orientation and linker not given here) [Phage-3124]",–,–,0.0809,2.07,–
"FEILCRPLWMCSGF (cysteine pairing not given here; also: fused to phage pIII, orientation and linker not given here) [Phage-3126]",–,–,0.111,2.06,–
TDHLCVPSWMCLGF [Phage-3081 (peptide-180 library clone)],–,–,–,–,"Phage binding ELISA signal, Anti-PSMA Fab [5]: 2.11; Phage binding ELISA signal, Anti-PSMA Fab in presence of PSMA [6]: 0.0801"
